Laboratory results: the supplement of paper PMC12764529
± gives the half width of the 95% confidence interval.

Columns and labels:
[1] = folding stability dG unfold (combined trypsin and chymotrypsin); higher = more stable
Outline: (§1)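 Sequencing followed digestion of designed mini-proteins with trypsin and chymotrypsin, each at 11 concentrations in threefold dilutions together with a no-protease condition. The mini-proteins were under 80 residues, had no cysteine, sat in a PA-tagged cDNA display construct, and were kept only if AlphaFold2 dimer inter-PAE was above 15. From the counts, Bayesian fitting gave K50, and unfolding free energy was derived against a sequence-predicted unfolded-state K50 and a shared folded-state K50, per protease or combined.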

[2] = folding stability dG unfold from trypsin proteolysis; higher = more stable
Outline: as §1

[3] = folding stability dG unfold from chymotrypsin proteolysis; higher = more stable
Outline: as §1

Sequence	folding stability dG unfold [1]	folding stability dG unfold [2]	folding stability dG unfold [3]
SAETVTFRVGDVEIVARRLPDGYVVVTEKVPEEYPEAELVLSLVRVYPDGTVEVESRLYRIDPETGVIGSAG [r14_724_TrMRF]	2.48 ± 0.17 kcal/mol	2.12 ± 0.049 kcal/mol	2.67 ± 0.053 kcal/mol
SAGGSAGGSGPMDDPVPPRFSVETSVSPVALPPEFVAYVAAHPEEVDAVYTTTVVVLEEGPAGSAGGSAGGS [r12_196_JUSTAS]	-0.449 ± 0.22 kcal/mol	-0.559 ± 0.075 kcal/mol	-0.482 ± 0.79 kcal/mol
SAMTVELTLPSEELVEKIKELLPSYVKIEKVEVDEETKTVTVTVSFDPNLSPEEQQAVVEKIKKLIEEKSAG [r14_306_JUSTAS]	3.4 ± 0.28 kcal/mol	2.7 ± 0.2 kcal/mol	3.56 ± 0.26 kcal/mol
SAGGSAGGSASMSPEELAEKYREEYEKKYGIPAVEVKVEVIPEEEKYVITIKLPGSEITVIVSAGGSAGGSA [r18_145_JUSTAS]	3.11 ± 0.13 kcal/mol	3.62 ± 0.26 kcal/mol	2.74 ± 0.089 kcal/mol
SASFRLEFPGVRIEVEVEEVEVFPRPDGRPYRLYRAKIRFLDVPEELQALDFPFSLDDEIEVLFLVSLDSAG [r14_942_TrMRF]	4.18 ± 0.12 kcal/mol	3.84 ± 0.07 kcal/mol	4.36 ± 0.12 kcal/mol
SAGGSALKIMVEPDPEDGTVRVWFMIPNPENGEEFMVQAEIDPNGKIEDVEVYPNGNMIWITFKLPSAGGSA [r15_557_TrROS]	2.96 ± 0.087 kcal/mol	2.4 ± 0.061 kcal/mol	3.36 ± 0.037 kcal/mol
SAGGDVTIEWFPMSEEEMKKMMEEMPPNTIMIPFPGNGYFIPVRVPDDPEEADKIAEEIRKWLEQLPSAGGS [r16_311_TrROS]	1.62 ± 0.063 kcal/mol	1.81 ± 0.057 kcal/mol	1.44 ± 0.024 kcal/mol
SAGGSAGGSAGKTIYAPYSKIPEVIEELKKKGYEIDSIEKVPNGSYKISFKNKPIEINLGSAGGSAGGSAGG [r17_379_TrMRF]	3.65 ± 0.088 kcal/mol	3.24 ± 0.078 kcal/mol	3.83 ± 0.048 kcal/mol
SDYMPVHKMESDGKRNPNGQHEYEPKMEPVWVPVPPPPPRIRIPPEWREKLKELAEKLGHPITDDDINKISA [r9_487_TrROS]	-0.13 ± 0.31 kcal/mol	-0.283 ± 0.19 kcal/mol	0.0759 ± 0.051 kcal/mol
SDIEIERDPNMIRIEHTYPFDNYRVKISLYVMVGPDGQFMLMIPIEIELPPPPPTPEKDPNGKEKWKPDASA [r9_456_TrROS]	3.85 ± 0.53 kcal/mol	2.67 ± 0.21 kcal/mol	4.27 ± 0.21 kcal/mol
SAGGSKKKKPEKPPVVLIKITVEETGKEITIPLEELRNMSAEELAKRIAEELRERYPGLKVRVEIVSAGGSA [r2_392_TrROS_Hall]	2.07 ± 0.17 kcal/mol	1.49 ± 0.071 kcal/mol	2.28 ± 0.11 kcal/mol
SAGGMPLDSPEVQRRLAALKEALAKAEALREAGLEVKVVSIEFDPETREVTIEVEVRPAPPPPPEEPSAGGS [r8_277_TrROS_Hall]	1.92 ± 0.12 kcal/mol	1.81 ± 0.1 kcal/mol	1.77 ± 0.083 kcal/mol
SAGGSAGGSAGGSKTLTPEEIKKLLDEAKKKGYKTVKITVKNKNGKTYTFTIKIPKEDLSAGGSAGGSAGGS [r4_342_TrROS_Hall]	2.95 ± 0.23 kcal/mol	2.76 ± 0.18 kcal/mol	3.13 ± 0.079 kcal/mol
SAGGSAGGRIEVDPEGATIKYEHNPNMMQIEIKYPGKKVQIMIPPDFMKQNPDMPIKDLVEWILSAGGSAGG [r6_369_TrROS]	1.11 ± 0.23 kcal/mol	1.09 ± 0.081 kcal/mol	0.94 ± 0.089 kcal/mol
SAGGSAGGSAMVVEERRLPDDLLVRTEVEPVEDNELPGPALRVTVTTVDLKTGEETPEVIPESAGGSAGGSA [r18_66_JUSTAS]	-0.0827 ± 0.091 kcal/mol	-0.713 ± 0.16 kcal/mol	0.168 ± 0.03 kcal/mol
SAGGSSPLLSPVTLTREVPASEPMAPEEVEAFAAAVAAEVAAAGMTVDFSVERHPDREVLTVTVTVASSAGG [r13_442_JUSTAS]	0.373 ± 0.056 kcal/mol	-0.372 ± 0.1 kcal/mol	0.678 ± 0.046 kcal/mol

Sequence	folding stability dG unfold [1]	folding stability dG unfold [2]	folding stability dG unfold [3]
SAGGSAGGGMLNGLLEKLLLAEPVEVDPVTTTVTPSPNGTVTTTPVYSTADDSVLTETQTTPVASAGGSAGG [r6_326_JUSTAS]	-0.0634 ± 0.14 kcal/mol	0.341 ± 0.057 kcal/mol	-0.574 ± 0.19 kcal/mol
SAGGMTPSVLSNLSEEERKEAVRDFIIEFIKKAFPNVPEDFSVEEVPVLVYDLKTGKLFEVTVHLEGKSAGG [r13_555_TrMRF]	1.73 ± 0.15 kcal/mol	1.19 ± 0.083 kcal/mol	2.16 ± 0.1 kcal/mol
SAGGSAGGSAGGDKNKPPKLKVKLKIEFPFTLPDGVKVRLEVEIDLDSDVIEPRAEVIDSSAGGSAGGSAGG [r7_213_TrMRF]	2.64 ± 0.081 kcal/mol	1.76 ± 0.035 kcal/mol	2.98 ± 0.086 kcal/mol
SAGGARREIVIEIEADTLEEALAAAREALAALEDPEDLTVTIVVRLPPPPPPPRPRRVRLDGEEVELRSAGG [r13_718_TrROS_Hall]	1.01 ± 0.22 kcal/mol	-0.384 ± 0.75 kcal/mol	1.32 ± 0.19 kcal/mol
SAGMKIKIIKLDKNLEELSEEELKKLLEELAKKGLVEKKKDGKKVIPLTVIDKKTKKTYTFYIEIEKPPSAG [r5_243_TrROS_Hall]	2.33 ± 0.17 kcal/mol	1.36 ± 0.041 kcal/mol	2.72 ± 0.057 kcal/mol
SAGSSPEEIAERLREEAERTEKLPDGSEVRVSVSVDVEVLPNGTVRLTIPRSYPETGVVTTETVTIPVASAG [r5_397_JUSTAS]	-0.194 ± 0.16 kcal/mol	0.0542 ± 0.11 kcal/mol	-0.579 ± 0.33 kcal/mol
SAGMTITTTTPAEAAALAEELAKKNPVLNVTITVVDPETGTVTTIPFAVPAPLPRPYFDPETGEVTLEGSAG [r5_870_TrMRF]	0.779 ± 0.11 kcal/mol	1.1 ± 0.033 kcal/mol	0.193 ± 0.18 kcal/mol
SAGGSAGGSAGGGMTTTKTEVSFSPAGGLVTTKSTERLPGTGELKEVTSVTPLASSGTTSAGGSAGGSAGGS [r10_296_JUSTAS]	0.622 ± 0.081 kcal/mol	0.0156 ± 0.034 kcal/mol	0.846 ± 0.034 kcal/mol
SAGGSAGGSAMTTVTSTTEIPPSALTVKTSVSTAPDGSLVETTTVVLPDGSVVTTTLSTVASAGGSAGGSAG [r3_7_JUSTAS]	1.11 ± 0.047 kcal/mol	0.974 ± 0.035 kcal/mol	1.19 ± 0.018 kcal/mol
SAGGSAGGSKTVYRITIYNEKTGKKLVIEIEESMSEEEKEQKIKDLLKKLLPPGAKIKIEKVPSAGGSAGGS [r20_213_TrROS_Hall]	4.08 ± 0.25 kcal/mol	3.34 ± 0.44 kcal/mol	4.44 ± 0.2 kcal/mol
SAGGSAGGSAGGGSMVTVPVTTESTTTVPPGAPAVEAAPVDPATATVSTTTSSTSLVASSAGGSAGGSAGGS [r10_82_JUSTAS]	0.862 ± 0.092 kcal/mol	1.22 ± 0.081 kcal/mol	0.534 ± 0.029 kcal/mol
SAKTVTLKVTLEIEINGVRVKVEATLTLELDENGELKLTLELKIEIEPAPPPKEVKLTEEEKKKLEELKSAG [r14_442_TrROS_Hall]	3.25 ± 0.69 kcal/mol	2.44 ± 0.23 kcal/mol	3.79 ± 0.2 kcal/mol
SAGGSSIKVTITDKNGNEYEIEIPSSLSLEEAKEKVKEYLEKKGYKVESITVENLPPGEAEIKVLKSAGGSA [r2_148_JUSTAS]	0.423 ± 0.29 kcal/mol	0.0509 ± 0.059 kcal/mol	0.465 ± 0.21 kcal/mol
SAGGSANNWKPIGEFPFRHPDGWRVTVPIWRDPGEGNIKINVKYQGPNGPPSKQMKEWAKKLLDEISAGGSA [r15_529_TrROS]	0.866 ± 0.31 kcal/mol	0.936 ± 0.15 kcal/mol	0.654 ± 0.32 kcal/mol
SAGGSAGGPPGEPPDVKVIPIEIEHERYNPDDGEMEVETIPFPIVIAPDGTIYHGDRPIPPDDISAGGSAGG [r6_515_TrROS]	1.8 ± 0.41 kcal/mol	2.02 ± 0.24 kcal/mol	1.41 ± 0.09 kcal/mol
